Values of other authors as cited in article PMC5587394.

Target: FGF20 (Homo sapiens) (UniProt Q9NP95)

FGF20, sequence (Q9NP95 whole entry): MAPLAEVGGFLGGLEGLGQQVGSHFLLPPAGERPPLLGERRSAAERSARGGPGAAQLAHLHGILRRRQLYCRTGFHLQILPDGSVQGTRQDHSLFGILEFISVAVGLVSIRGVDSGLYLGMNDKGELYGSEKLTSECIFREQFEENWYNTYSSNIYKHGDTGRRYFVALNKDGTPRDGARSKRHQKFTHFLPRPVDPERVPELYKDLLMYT

- Kd: 0.1 µM
Substance: FGF20 (from UniProt Q9NP95)
